Here are results for 2 proteins from PMC12668046, “Single cis‐elements in brassinosteroid‐induced upregulated genes are insufficient to recruit both redox states of the BIL1/BZR1 DNA‐binding domain” (Febs Letters, 2025).

Data set [1] deals with the molecule itself. Briefly: SEC; unfused BIL1/BZR1 DBD pretreated with DTT; Superdex 75 10/300 GL Increase; reductant-free buffer 20 mM Tris/HCl pH 8.0, 1 M NaCl, 10% glycerol. Background: Size exclusion chromatography separates by hydrodynamic size, large species first.
Data set [2] deals with the molecule itself. Briefly: crystal structure; mMBP-Ala-BIL1/BZR1 DBD co-crystallised with DNA fragments containing E-box variants (CATATG or CAGCTG); sitting drop, 293 K, 50 mM sodium cacodylate pH 6.5, 0.2 M KCl, 0.01 M MgCl2, 10% PEG 4000.

B1: unfused BIL1/BZR1 DBD (21–104), pretreated with the reductant DTT (domain or fragment, A. thaliana, UniProt Q8S307 21-104, looked up)
chain: ARRKPSWRERENNRRRERRRRAVAAKIYTGLRAQGDYNLPKHCDNNEVLKALCVEAGWVVEEDGTTYRKGCKPLPGEIAGTSSR
notes: also called reduced BIL1/BZR1 DBD; source: expressed and purified as described previously [9, 14, 21]; SEC into reductant-free buffer
Take B1: the binding result in data set [1] is given as “binds”.

B2: mutated maltose-binding protein (mMBP)-Ala-BIL1/BZR1 DBD (amino acids 21–104) (domain or fragment, A. thaliana, UniProt Q8S307 21-104, looked up)
chain: ARRKPSWRERENNRRRERRRRAVAAKIYTGLRAQGDYNLPKHCDNNEVLKALCVEAGWVVEEDGTTYRKGCKPLPGEIAGTSSR
notes: protomers 1 and 2 are chains C and D of the deposited entries; Co-crystallised with E-box DNA fragments; also called mMBP-fused BIL1/BZR1 DBD; mMBP-BIL1/BZR1 (21–104); source: expressed and purified as described previously [9, 14, 21]; SEC
Consider B2, for which, in data set [2], the binding result is listed as “binds”.
